B1: Protein SGT1 homolog (Homo sapiens), Q9Y2Z0-2 (parent)
chain: MAAAAAGTATSQRFFQSFSDALIDEDPQAALEELTKALEQKPDDAQYYCQRAYCHILLGNYCVAVADAKKSLELNPNNSTAMLRKGICEYHEKNYAAALETFTEGQKLDSADANFSVWIKRCQEAQNGSESEVWTHQSKIKYDWYQTESQVVITLMIKNVQKNDVNVEFSEKELSALVKLPSGEDYNLKLELLHPIIPEQSTFKVLSTKIEIKLKKPEAVRWEKLEGQGDVPTPKQFVADVKNLYPSSSPYTRNWDKLVGEIKEEEKNEKLEGDAALNRLFQQIYSDGSDEVKRAMNKSFMESGGTVLSTNWSDVGKRKVEINPPDDMEWKKY

Variants of: B1
Settings: with skp1_human SKP1, P63208
Chain of skp1_human SKP1, P63208 (P63208 whole entry): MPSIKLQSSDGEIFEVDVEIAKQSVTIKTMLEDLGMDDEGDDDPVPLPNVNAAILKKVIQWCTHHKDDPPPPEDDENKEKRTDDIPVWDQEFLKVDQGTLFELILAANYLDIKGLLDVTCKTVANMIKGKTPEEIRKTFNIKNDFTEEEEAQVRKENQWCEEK

Variant | effect of a mutation on the interaction
MAAAAAGTATSQRFFQSFSDALIDEDPQAALEELTKALEQKPDDAQYYCQRAYCHILLGNYCVAVADAKKSLELNPNNSTAMLRKGICEYHEKNYAAALETFTEGQKLDSADANFSVWIKRCQEAQNGSESEVWTHQSKIKYDWRQTESQVVITLMIKNVQKNDVNVEFSEKELSALVKLPSGEDYNLKLELLHPIIPEQSTFKVLSTKIEIKLKKPEAVRWEKLEGQGDVPTPKQFVADVKNLYPSSSPYTRNWDKLVGEIKEEEKNEKLEGDAALNRLFQQIYSDGSDEVKRAMNKSFMESGGTVLSTNWSDVGKRKVEINPPDDMEWKKY [Y145R] | increasing interaction

Reference: IntAct's records for PubMed 18818696
